B1: P028F4 (ssDNA)
DNA: GGGTAACCTTGAGTCACGAATTCAAGCGGGACAGGAGAAACACGGCATGTCAGCGAAGGTACCCAACTTACAGCTTCTGG

Key:
[1] = target: endogenous RelA in A549 cells (Homo sapiens, UniProt Q04206 Q04206:1-551); assay: cell_activity; 4 uM transfected aptamer; control induction 5-fold (Gro-beta) and nearly 7-fold (TNFAIP3)
Procedure: A549 cells transfected with nothing (−), 4 μM P028A1 or P028F4 aptamers were stimulated in the absence (Con) or presence of TNF. (1 h, 30 ng/ml). Total RNA was extracted and subjected to Q-RT-PCR for Gro-β (top panel) and TNFAIP3/A20 (bottom panel). Data are normalized to GAPDH and expressed as fold change relative to uninfected control. Each bar is mean±SD of triplicate determination. * p<0.05 and (4B) ChIP assay. A549 cells transfected with nothing (−), P028A1 (4 μM) or P028F4 (4 μM) were stimulated in the absence (Con) or presence of TNF (1 h, 30 ng/ml). Two-step ChIP was preformed using pre-immune IgG (IgG), or anti-RelA as the primary Abs. Immunoprecipitated DNA was subjected to quantitative PCR using primers for Groβ (top) or TNFAIP3/A20 promoters (bottom) as indicated. Data are shown as fold increase in signal relative to unstimulated A549 cells (X, ±SD of technical replicates). The study was repeated twice with similar results;
Aptamer P028F4 inhibits TNFα-induced endogenous NF-κB dependent gene expression: Earlier studies selectively inhibiting NF-κB/RelA translocation identified Groβ and TNFAIP3/A20 as part of a TNFα inducible gene network downstream of NF-κB (3,4,39). […] Relative changes in Groβ and TNFAIP3/A20 transcripts were determined by Q-RT-PCR. […]

[2] = target: GST-RelA(1-313) (NF-kB p65, DNA binding and IkBa interactive domain) (UniProt Q04206 Q04206:1-313); assay: filter; variable region alone sufficient for binding; data not shown; competition and direct binding; conditions: tags: GST; chain copies: 2
Chain of GST-RelA(1-313) (NF-kB p65, DNA binding and IkBa interactive domain) (Q04206 1-313, one chain of several): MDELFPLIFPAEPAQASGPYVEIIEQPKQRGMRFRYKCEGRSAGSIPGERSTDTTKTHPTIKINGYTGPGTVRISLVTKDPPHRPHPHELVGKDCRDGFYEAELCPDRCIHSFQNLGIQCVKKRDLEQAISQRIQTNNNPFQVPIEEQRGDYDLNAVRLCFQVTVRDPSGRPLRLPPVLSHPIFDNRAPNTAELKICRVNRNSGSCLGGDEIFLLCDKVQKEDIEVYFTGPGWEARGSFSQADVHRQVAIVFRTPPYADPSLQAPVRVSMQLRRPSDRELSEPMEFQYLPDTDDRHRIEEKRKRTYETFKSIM
Procedure: Binding Studies: (i) Nitrocellulose filter binding assay: Filter binding assays were performed as described (22). Initially, 70 mer oligonucleotides were commercially synthesized (IDT) to include the proximal 20 bases of each flanking primer sequence and the 30 base variable region. DNAs were 5′ end-labeled with ³²P-ATP using T4-PNK (New England Biolabs) and purified by glass bead binding using a MERMAID kit (MP Biomedicals LLC). Protein and labeled aptamer were incubated in ABB and filtered through 25 mm nitrocellulose filters. The bound material was counted in a Beckman Liquid Scintillation counter. For competition studies, binding reactions (100 μL) in ABB were incubated at RT for 20 min with 100 fold excess (10 picomoles) of unlabeled competitor DNAs, followed by the addition of 0.1 picomole of ³²P-labeled KB55 probe. After 30 min of incubation, reactions were filtered and counted. The KB55 sequence is […] (SEQ ID NO: 3) and self anneals to form a duplex. Upper and lower strands of IL8KB are […] (SEQ ID NO: 4) and […] (SEQ ID NO: 5), respectively.
Isolation of RelA(1-313) binding single stranded aptamer: Purified recombinant GST-RelA(1-313), encoding the DNA binding and IκBα interactive domain, was used to screen for high affinity ssDNA aptamers by repeated rounds of in vitro binding and enrichment. […]

Chain of endogenous RelA in A549 cells (Q04206 whole entry, one chain of several): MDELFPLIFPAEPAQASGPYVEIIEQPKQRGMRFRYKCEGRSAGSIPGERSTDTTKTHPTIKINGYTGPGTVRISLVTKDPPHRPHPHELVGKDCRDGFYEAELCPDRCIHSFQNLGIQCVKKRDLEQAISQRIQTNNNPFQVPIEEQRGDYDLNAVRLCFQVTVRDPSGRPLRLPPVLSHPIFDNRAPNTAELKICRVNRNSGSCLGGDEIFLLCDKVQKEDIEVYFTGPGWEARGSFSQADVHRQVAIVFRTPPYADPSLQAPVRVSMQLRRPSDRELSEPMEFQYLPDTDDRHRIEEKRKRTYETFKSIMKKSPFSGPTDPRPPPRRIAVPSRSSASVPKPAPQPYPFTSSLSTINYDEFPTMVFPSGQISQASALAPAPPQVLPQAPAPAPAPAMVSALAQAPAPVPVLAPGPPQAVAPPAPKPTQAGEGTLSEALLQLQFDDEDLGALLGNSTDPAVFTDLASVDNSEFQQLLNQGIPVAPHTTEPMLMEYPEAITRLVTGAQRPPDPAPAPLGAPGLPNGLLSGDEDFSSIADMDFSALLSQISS

Binder	activity [1]	binding result [2]
B1	< 2 fold induction of Gro-beta and TNFAIP3 mRNA	–
GCGGGACAGGAGAAACACGGCATGTCAGCG (ssDNA) [P028F4 30-base variable region]	–	binds
